Source: patent US20190185532A1 (UNIVERSITY OF BIRMINGHAM, published 2019)
Each block holds one binder with its values, some of them ahead of it.

What was measured:
[1] = biological target: T1, MMRN2^FL (full-length human MMRN2 with a polyhistidine (His) tag) (human, UniProt Q9H8L6 23-949); assay: far western blot, non-reduced; HEK293T lysates of GFP-tagged proteins probed with MMRN2^FL-His lysate, anti-His detection
T1 construct: mature; Used as lysate of transfected HEK293T cells; Forms large multimers under non-reduced conditions; also called MMRN2 full-length; MMRN2 FL with His tag; not shown: C-terminal BirA and His tags of vector pHL-Avitag3
T1 sequence (looked up): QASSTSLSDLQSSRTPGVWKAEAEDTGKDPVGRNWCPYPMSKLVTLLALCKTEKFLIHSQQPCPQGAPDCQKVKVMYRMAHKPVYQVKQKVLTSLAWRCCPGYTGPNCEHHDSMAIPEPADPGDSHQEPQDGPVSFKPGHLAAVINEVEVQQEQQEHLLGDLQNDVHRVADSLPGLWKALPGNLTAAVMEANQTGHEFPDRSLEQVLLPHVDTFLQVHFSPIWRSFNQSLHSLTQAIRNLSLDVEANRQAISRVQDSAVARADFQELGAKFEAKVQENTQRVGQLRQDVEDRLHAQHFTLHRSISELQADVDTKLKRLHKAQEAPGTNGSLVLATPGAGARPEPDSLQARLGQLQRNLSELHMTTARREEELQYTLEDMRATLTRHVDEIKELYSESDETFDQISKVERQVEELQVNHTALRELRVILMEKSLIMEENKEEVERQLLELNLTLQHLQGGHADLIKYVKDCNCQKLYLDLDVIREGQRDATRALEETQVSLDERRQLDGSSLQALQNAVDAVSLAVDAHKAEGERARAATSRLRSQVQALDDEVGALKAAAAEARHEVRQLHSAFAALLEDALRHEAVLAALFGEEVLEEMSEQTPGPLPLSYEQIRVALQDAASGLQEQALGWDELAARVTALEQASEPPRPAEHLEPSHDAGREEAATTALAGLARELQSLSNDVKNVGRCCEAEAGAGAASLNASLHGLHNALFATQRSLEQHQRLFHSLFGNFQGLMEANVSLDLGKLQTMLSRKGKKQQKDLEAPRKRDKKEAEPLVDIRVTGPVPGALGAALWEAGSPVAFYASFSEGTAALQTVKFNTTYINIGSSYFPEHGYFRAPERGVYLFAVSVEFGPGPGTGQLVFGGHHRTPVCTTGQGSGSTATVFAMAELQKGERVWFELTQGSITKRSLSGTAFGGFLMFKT
From the text: We previously identified MMRN2 as a binding partner of CLEC14A, one of the members of the C-type lectin domain (CTLD) group 14 family (4). To test whether any of the other CTLD group 14 family members also bind to MMRN2, we employed far western blotting using MMRN2 protein probe as a surrogate for a primary antibody in a standard western blot set up. The CTLD group 14 family members CLEC14A, CD93 and thrombomodulin were all constructed with a C-terminal green fluorescent protein (GFP) tag (FIG. 1A). Constructs were transfected into HEK293T cells and lysates were separated by SDS-PAGE under non-reducing conditions to keep disulphide bonds intact, then transferred to PVDF membranes and blotted using HEK293T lysates overexpressing full-length human MMRN2 with a polyhistidine (His) tag. MMRN2 protein binding was detected by staining with an anti-His tag antibody.
(§1) Whole cell protein lysates were made by incubating with lysis buffer (1% (v/v) NP40, 10 mM Tris pH7.5, 150 mM NaCl and 1 mM EDTA) and pelleting insoluble material. Standard protocols for western blotting were used. […] The epitope tag of each probed protein was detected with secondary antibody incubation (anti-His or anti-Fc HRP conjugate) and then tertiary anti-mouse HRP for the case of anti-His.

[2] = biological target: T2, mouse CLEC14A-ECD-Fc (murine CLEC14A-ECD fused to a human Fc tag) (mouse; human, UniProt Q8VCP9 22-386); assay: far western blot, reduced and non-reduced
T2 construct: extracellular domain; not shown: human Fc tag
T2 sequence (looked up): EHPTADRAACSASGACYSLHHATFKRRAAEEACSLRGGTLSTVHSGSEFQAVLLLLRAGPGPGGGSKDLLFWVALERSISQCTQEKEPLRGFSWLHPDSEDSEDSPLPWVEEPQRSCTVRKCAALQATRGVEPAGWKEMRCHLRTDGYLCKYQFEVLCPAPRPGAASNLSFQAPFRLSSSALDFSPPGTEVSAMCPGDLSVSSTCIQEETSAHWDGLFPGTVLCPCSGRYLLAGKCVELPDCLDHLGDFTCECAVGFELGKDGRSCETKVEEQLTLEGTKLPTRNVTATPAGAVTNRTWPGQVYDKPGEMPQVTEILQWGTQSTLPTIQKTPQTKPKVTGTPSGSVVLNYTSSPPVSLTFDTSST

[3] = biological target: T3, CLEC14A-ECD-Fc (human CLEC14A extracellular domain fused to an Fc tag) (human, UniProt Q86T13 22-396); assay: far western blot; HEK293T lysates probed with CLEC14A-ECD-Fc
T3 construct: Expressed in HEK293T cells; also called hCLEC14A-ECD-Fc; C14A-Fc; not shown: human IgG Fc tag
T3 sequence: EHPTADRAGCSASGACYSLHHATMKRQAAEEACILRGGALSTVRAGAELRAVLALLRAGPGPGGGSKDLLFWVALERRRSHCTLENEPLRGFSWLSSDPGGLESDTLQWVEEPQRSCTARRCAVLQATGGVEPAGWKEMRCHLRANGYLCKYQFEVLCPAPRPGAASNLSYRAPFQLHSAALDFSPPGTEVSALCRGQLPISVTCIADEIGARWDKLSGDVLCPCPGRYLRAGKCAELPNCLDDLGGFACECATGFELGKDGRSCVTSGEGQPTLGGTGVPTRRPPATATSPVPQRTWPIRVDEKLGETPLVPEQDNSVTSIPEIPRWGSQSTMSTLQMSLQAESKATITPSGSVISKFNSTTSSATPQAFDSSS
From the text: FIG. 2. […] (A) Diagrams of MMRN2 truncation mutants, showing the elastin microfibril interface (EMI) domain, coiled-coil (CC) domain and complement related C1q domain. The minimal CLEC14A binding fragment is highlighted in black. (B,C) HEK293T were transfected with truncation mutants. Lysates were far western blotted under reduced conditions with CLEC14A extracellular domain fused to an Fc tag (CLEC14A-ECD-Fc) and western blotted by use of His tag antibodies. (B) The smallest binding fragment was identified as MMRN2⁴⁸⁷⁻⁸²⁰, MMRN2^FL fails to bind CLEC14A-ECD-Fc. (C) The smallest MMRN2 fragment binding CLEC14A is MMRN2⁵³⁰⁻⁶²⁴. (D) MMRN2⁴⁹⁵⁻⁶⁷⁴ and MMRN2⁴⁹⁵⁻⁶⁰³ bind to streptavidin under reducing conditions after biotinylation. (E) Flow cytometry histograms of HEK293T transfected with GFP tagged CTLD group 14 family members and stained with biotinylated MMRN2⁴⁹⁵⁻⁶⁷⁴ (grey line), confirming binding to CLEC14A and CD93 but not thrombomodulin. Streptavidin-PE was used as a control for background binding (grey shaded).
as §1, with “material.” for “material. Standard protocols for western blotting were used.”

[4] = biological target: T2, mouse CLEC14A-ECD-Fc (murine …); assay: far western blot; HEK293T lysate probed with mouse CLEC14A-ECD-Fc

- binding result [1]: binds
B1: CD93 (human, wild type, C-terminal GFP tag, expressed in HEK293T) (receptor)
chain: TGADTEAVVCVGTACYTAHSGKLSAAEAQNHCNQNGGNLATVKSKEEAQHVQRVLAQLLRREAALTARMSKFWIGLQREKGKCLDPSLPLKGFSWVGGGEDTPYSNWHKELRNSCISKRCVSLLLDLSQPLLPSRLPKWSEGPCGSPGSPGSNIEGFVCKFSFKGMCRPLALGGPGQVTYTTPFQTTSSSLEAVPFASAANVACGEGDKDETQSHYFLCKEKAPDVFDWGSSGPLCVSPKYGCNFNNGGCHQDCFEGGDGSFLCGCRPGFRLLDDLVTCASRNPCSSSPCRGGATCVLGPHGKNYTCRCPQGYQLDSSQLDCVDVDECQDSPCAQECVNTPGGFRCECWVGYEPGGPGEGACQDVDECALGRSPCAQGCTNTDGSFHCSCEEGYVLAGEDGTQCQDVDECVGPGGPLCDSLCFNTQGSFHCGCLPGWVLAPNGVSCTMGPVSLGPPSGPPDEEDKGEKEGSTVPRAATASPTRGPEGTPKATPTTSRPSLSSDAPITSAPLKMLAPSGSPGVWREPSIHHATAASGPQEPAGGDSSVATQNNDGTDGQKLLLFYILGTVVAILLLLALALGLLVYRKRRAKREEKKEKKPQNAADSYSWVPERAESRAMENQYSPTPGTDC
notes: On cells in flow cytometry; as non-reduced HEK293T lysate in far western blots; also called CD93 wild type (wt); cell surface expressed CD93; not shown: C-terminal green fluorescent protein (GFP) tag from vector pEGFP-N1

- binding result [2]: binds
- binding result [3]: binds
B2: MMRN2^495-674 (human, expressed in HEK293T, His tag) (ligand)
chain: QKLYLDLDVIREGQRDATRALEETQVSLDERRQLDGSSLQALQNAVDAVSLAVDAHKAEGERARAATSRLRSQVQALDDEVGALKAAAAEARHEVRQLHSAFAALLEDALRHEAVLAALFGEEVLEEMSEQTPGPLPLSYEQIRVALQDAASGLQEQALGWDELAARVTALEQASEPPRP
notes: not shown: C-terminal BirA and His tags of vector pHL-Avitag3

- binding result [4]: binds
B3: mouse MMRN2^495-678 (expressed in HEK293T, His tag) (ligand)
chain: QRVNSDVDVAPEGHRDVMHTLEETQVSLDEQHQLDGSSLQALQSTVDAMSSAMDAYRGEGERARAERARIRSQLRALDHAVEALKTAANGTRKEIRLLHGSFTALLEDALRHQAVLAALFGEEMIDEMSEEAPRPLPLDYEQIRLALQDAASGLQEQAIGWEDLATRVEALEKAAGGFVEQHPQ
notes: as for B2

- binding result [1]: binds
B4: CLEC14A (human, wild type, C-terminal GFP tag, expressed in HEK293T) (receptor)
chain: EHPTADRAGCSASGACYSLHHATMKRQAAEEACILRGGALSTVRAGAELRAVLALLRAGPGPGGGSKDLLFWVALERRRSHCTLENEPLRGFSWLSSDPGGLESDTLQWVEEPQRSCTARRCAVLQATGGVEPAGWKEMRCHLRANGYLCKYQFEVLCPAPRPGAASNLSYRAPFQLHSAALDFSPPGTEVSALCRGQLPISVTCIADEIGARWDKLSGDVLCPCPGRYLRAGKCAELPNCLDDLGGFACECATGFELGKDGRSCVTSGEGQPTLGGTGVPTRRPPATATSPVPQRTWPIRVDEKLGETPLVPEQDNSVTSIPEIPRWGSQSTMSTLQMSLQAESKATITPSGSVISKFNSTTSSATPQAFDSSSAVVFIFVSTAVVVLVILTMTVLGLVKLCFHESPSSQPRKESMGPPGLESDPEPAALGSSSAHCTNNGVKVGDCDLRDRAEGALLAESPLGSSDA
notes: On cells in flow cytometry; as non-reduced HEK293T lysate in far western blots; also called CLEC14A wt; cell surface expressed CLEC14A; not shown: C-terminal green fluorescent protein (GFP) tag from vector pEGFP-N1
